Where no end group is shown, it is not given here. [ ]: non-standard residue; d: D form. The star is where a group is joined. C18 fatty acyl = 18 carbon fatty acyl group covalently attached to Lys; Palmitoyl = CCCCCCCCCCCCCCCC(=O)*; Myristoyl = CCCCCCCCCCCCCC(=O)*; Aib = CC(C)(N)C(=O)O
T1: GIP receptor (UniProt P48546 22-466)
T1 sequence (looked up): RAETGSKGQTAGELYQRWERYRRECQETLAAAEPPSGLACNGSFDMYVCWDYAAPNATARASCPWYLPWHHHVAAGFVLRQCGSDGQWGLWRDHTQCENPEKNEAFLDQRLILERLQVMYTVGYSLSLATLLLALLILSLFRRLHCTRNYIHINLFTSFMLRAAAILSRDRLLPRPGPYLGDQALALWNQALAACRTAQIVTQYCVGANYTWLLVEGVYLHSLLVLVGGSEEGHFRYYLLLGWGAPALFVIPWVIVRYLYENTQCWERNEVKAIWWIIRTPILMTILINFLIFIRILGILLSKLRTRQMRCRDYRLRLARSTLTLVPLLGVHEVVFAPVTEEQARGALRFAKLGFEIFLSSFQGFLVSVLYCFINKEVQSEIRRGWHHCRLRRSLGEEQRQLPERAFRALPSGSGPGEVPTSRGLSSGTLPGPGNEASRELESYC

B1: mt-296 (peptide)
peptide: Y[Aib]EGTFTSDYSIYLDKQAA[Aib]EFVCWLLAGGPSSGAPPPSK(Palmitoyl)-NH2
modifications: N-terminus assumed
SMILES: CCCCCCCCCCCCCCCC(=O)NCCCC[C@H](NC(=O)[C@H](CO)NC(=O)[C@@H]1CCCN1C(=O)[C@@H]1CCCN1C(=O)[C@@H]1CCCN1C(=O)[C@H](C)NC(=O)CNC(=O)[C@H](CO)NC(=O)[C@H](CO)NC(=O)[C@@H]1CCCN1C(=O)CNC(=O)CNC(=O)[C@H](C)NC(=O)[C@H](CC(C)C)NC(=O)[C@H](CC(C)C)NC(=O)[C@H](Cc1c[nH]c2ccccc12)NC(=O)[C@H](CS)NC(=O)[C@@H](NC(=O)[C@H](Cc1ccccc1)NC(=O)[C@H](CCC(=O)O)NC(=O)C(C)(C)NC(=O)[C@H](C)NC(=O)[C@H](C)NC(=O)[C@H](CCC(N)=O)NC(=O)[C@H](CCCCN)NC(=O)[C@H](CC(=O)O)NC(=O)[C@H](CC(C)C)NC(=O)[C@H](Cc1ccc(O)cc1)NC(=O)[C@@H](NC(=O)[C@H](CO)NC(=O)[C@H](Cc1ccc(O)cc1)NC(=O)[C@H](CC(=O)O)NC(=O)[C@H](CO)NC(=O)[C@@H](NC(=O)[C@H](Cc1ccccc1)NC(=O)[C@@H](NC(=O)CNC(=O)[C@H](CCC(=O)O)NC(=O)C(C)(C)NC(=O)[C@@H](N)Cc1ccc(O)cc1)[C@@H](C)O)[C@@H](C)O)[C@@H](C)CC)C(C)C)C(N)=O
B2: mt-306 (peptide)
peptide: Y[Aib]EGTFTSDYSIYLDKQAA[Aib]EFVCWLLAGGPSSGAPPPSK(Myristoyl)-NH2
modifications: N-terminus assumed
SMILES: CCCCCCCCCCCCCC(=O)NCCCC[C@H](NC(=O)[C@H](CO)NC(=O)[C@@H]1CCCN1C(=O)[C@@H]1CCCN1C(=O)[C@@H]1CCCN1C(=O)[C@H](C)NC(=O)CNC(=O)[C@H](CO)NC(=O)[C@H](CO)NC(=O)[C@@H]1CCCN1C(=O)CNC(=O)CNC(=O)[C@H](C)NC(=O)[C@H](CC(C)C)NC(=O)[C@H](CC(C)C)NC(=O)[C@H](Cc1c[nH]c2ccccc12)NC(=O)[C@H](CS)NC(=O)[C@@H](NC(=O)[C@H](Cc1ccccc1)NC(=O)[C@H](CCC(=O)O)NC(=O)C(C)(C)NC(=O)[C@H](C)NC(=O)[C@H](C)NC(=O)[C@H](CCC(N)=O)NC(=O)[C@H](CCCCN)NC(=O)[C@H](CC(=O)O)NC(=O)[C@H](CC(C)C)NC(=O)[C@H](Cc1ccc(O)cc1)NC(=O)[C@@H](NC(=O)[C@H](CO)NC(=O)[C@H](Cc1ccc(O)cc1)NC(=O)[C@H](CC(=O)O)NC(=O)[C@H](CO)NC(=O)[C@@H](NC(=O)[C@H](Cc1ccccc1)NC(=O)[C@@H](NC(=O)CNC(=O)[C@H](CCC(=O)O)NC(=O)C(C)(C)NC(=O)[C@@H](N)Cc1ccc(O)cc1)[C@@H](C)O)[C@@H](C)O)[C@@H](C)CC)C(C)C)C(N)=O

molecular target: GLP-1 receptor (UniProt P43220 24-463, limits assumed); test: cell-based or functional assay

Binder	EC50
Y[Aib]EGTFTSDYSIYLDKQAA[Aib]EFVCWLLAGGPSSGAPPPSK(C18 fatty acyl)-NH2 [mt-307]	0.0143 nM
B1	0.0124 nM
B2	0.0201 nM

molecular target: T1, GIP receptor; test: cell-based or functional assay

Binder	EC50
Y[Aib]EGTFTSDYSIYLDKQAA[Aib]EFVCWLLAGGPSSGAPPPSK(C18 fatty acyl)-NH2 [mt-307]	0.0127 nM
B1	0.0077 nM
B2	0.0064 nM
